The text below walks through data of the RNAGym collection of RNA variant scans (doi:10.1073/pnas.2313332121).

This sample holds only a part of the variants without activity. A value given as a limit tells only on which side of the number the result lay.

B1: TPR 5TU (parent)
chain: GGAUCUUCUCGAUCUAACAAAAAAGACAAAUCUGCCACAAAGCUUGAGAGCAUCUUCGGAUGCAGAGGCGGCAGCCUUCGGUGGCGCGAUAGCGCCAACGUUCUCAACUAUGACACGCAAAACGCGUGCUCCGUUGAAUGGAGUUUAUCAUG

The variants in the series derive from B1. Put plainly: polymerase ribozyme fitness, log enrichment relative to wild type (log ratio); higher = more active; in vitro selection for triplet polymerase activity. Put shortly: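 Each subunit of a heterodimeric triplet polymerase ribozyme was represented by a PCR-built, transcribed mutant library that underwent triplicate single-round in vitro selection with frozen incubation at −7 °C. Extended constructs were recovered by gel excision, streptavidin-bead capture and RT-PCR, and Illumina sequencing of input and output libraries kept genotypes with ≥10 input reads and ≥1 read per output. Fitness is the logarithm of genotype enrichment relative to wild-type enrichment, from inverse-variance-weighted replicate averages, with a logarithm base of 2.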
For the variant C10U U56A C93U A122U C149U G152U, the “polymerase ribozyme fitness (log ratio)” value was not above -4.2.
The same measure for G11A C38A A40G: -4.14; for C10U A47G G94U A147G: not above -4.2; for C10U A29G G59A G81A A97G: not above -4.2.
The same measure for C10U G88U: not above -4.2.
The same measure for G11U A26U G83A: -4.06; for C10U A40G C105G: not above -4.2.
With C10U A22C C36A A49C U53C C57G G58A G86U C93U G117U, the “polymerase ribozyme fitness (log ratio)” value was not above -4.2.
The same measure for C10U A24U U33G A41G U56A C85U A91C: not above -4.2; for C10U A26U C35U C54U A60C C95A C99U C103G A142U: not above -4.2; for G11A A21G A23C C54U G70C C76A G83U: not above -4.2.
The same measure for G11C A23G A91G C95U A121G: -3.82; for C10U G124C U139G U148C: not above -4.2.
With C10U G74C G88C A110G, the “polymerase ribozyme fitness (log ratio)” value was not above -4.2.
The same measure for C10U U13G C35U G50U G59C A60U C85A G94C G141A: not above -4.2; for G11A A12G C38U A41U C69U G83U: -3.51.
The same measure for C10G G81C C87A U127C U144A U148A: not above -4.2.
The same measure for G11U C96G: -1.31; for C10U U13G U45A G46A G58C C63U G141U: not above -4.2; for G11A G58U C96U: -1.58.
In the case of C10U A22C G46A G50A C79G C85U C105U, the “polymerase ribozyme fitness (log ratio)” value is not above -4.2.
The same measure for G11U G68U A120U C125U: not above -4.2.
The same measure for G11C C105U C118G: -1.92; for G11C G46A G58A G83A: -3.26; for C10U A29U G92A C99A U145C: not above -4.2.
The same measure for G11A C114G G124U: -4.03.
Turning to G11A C14G A66U C87A A106U G143C, the “polymerase ribozyme fitness (log ratio)” value was not above -4.2.
The same measure for C10U U15C A29U C95U: not above -4.2.
The same measure for G11A A113U: -2.69.
On to C10G C51U G92A G124C, for which the “polymerase ribozyme fitness (log ratio)” value was not above -4.2.
The same measure for G11C A41C A66C C85U A122U G140U: not above -4.2; for C10U C123U G141C: -4.03.
The same measure for G11A C27A A37C G59C G83A G86A G92A U102G G117U: not above -4.2; for G11A U55A U101G: -1.01.
With C10G G34U C85A, the “polymerase ribozyme fitness (log ratio)” value is not above -4.2.
The same measure for G11U U13A A17U A26U A41C U45A C87A C108U A142C A147U: not above -4.2; for G11A C14U U33G U44A C69A C79A C85U A97U: not above -4.2.
The same measure for C10U U53C U55A G86A G88C: not above -4.2.
G11A A23U A39U U53G C54U C93U A122U A142G: the “polymerase ribozyme fitness (log ratio)” value is not above -4.2.
The same measure for G11A C14G A19U C27A U31C C118G: not above -4.2.
The same measure for G11U A66C C76U U90G U102G U148G: not above -4.2; for G11C C38U C85G U135C: not above -4.2.
In the case of G11A A17C A49C C85U A91U G136U, the “polymerase ribozyme fitness (log ratio)” value was not above -4.2.
The same measure for G11C C63U C79U G86C: not above -4.2; for G11C A66U C96A C108G: not above -4.2; for G11A A91G A138U: not above -4.2.
The same measure for C10G G92C U111A C114A: not above -4.2; for G11U C27U A29C C75U G83C G126U: not above -4.2.
The same measure for C10U A47U G59C A60G G62A A110U G141C U145A U148A: not above -4.2; for G11U U56A A64G C118U A121U: not above -4.2.
In the case of G11A A19U U56G U82C G84U C95U, the “polymerase ribozyme fitness (log ratio)” value is not above -4.2.
The same measure for G11C A37C U55G C93A C99G G124U C149U: not above -4.2; for C10G C54U U56A G62U G94A C149U: not above -4.2; for C10U A64C A89C G117C A137C: not above -4.2.
Turning to G11A U15G A107G G141C U144C U145A G152A, the “polymerase ribozyme fitness (log ratio)” value was not above -4.2.
The same measure for G11C C87U: -2.7; for G11C C36U C57A G100A: not above -4.2; for C10G G25U U55A G88A A106G U130A A150G: not above -4.2.
The same measure for G11C A47C U55A G81A C87G A120U U144A: not above -4.2; for C10U U53A: -2.96.
The same measure for G11A A39U A97C: -3.26; for G11A U134A: -3.6; for C10U A16G G84U G140U: not above -4.2.
Regarding C10U U55A G84U, the “polymerase ribozyme fitness (log ratio)” value is -4.1.
Regarding G11C A47U C85U, the “polymerase ribozyme fitness (log ratio)” value was -2.5.
The same measure for C10G U13C G70A U111G U148A: not above -4.2; for C10U C38U G80A G94C C125A G143A: not above -4.2.
The same measure for G11A A17G U31A U53G C54U A64G: not above -4.2; for C10U G84A U101A A115U A121G G124A: not above -4.2; for G11C U56A G86A: not above -4.2.
Consider G11A A52G U53A C54A G84U G128U C132U, for which the “polymerase ribozyme fitness (log ratio)” value was -4.13.
In the case of G11U C38A G83U U135C C149G, the “polymerase ribozyme fitness (log ratio)” value is not above -4.2.
On to C10G G46A U55A G65A A73G U134A, for which the “polymerase ribozyme fitness (log ratio)” value was not above -4.2.
On to C10U A19C U45G C72G U90C U135G, for which the “polymerase ribozyme fitness (log ratio)” value is not above -4.2.
For C10U A17U A41C G50C G84A, the “polymerase ribozyme fitness (log ratio)” value is not above -4.2.
The same measure for G11U G46A C85U: -2.44; for G11U A19C U55A G71A A91C G100A U109G A122U: not above -4.2.
As for G11A A19U U61A G84C C85A C103G, the “polymerase ribozyme fitness (log ratio)” value was not above -4.2.
The same measure for C10U C51G U53A U90G: not above -4.2.
The same measure for G11A G141U: 0.246; for C10U C27U C35G C87G C96U U148G: not above -4.2; for C10U U15A A23U C32A C51U U55G U111G: not above -4.2.
The same measure for G11U U53A G65A A73U G83C U144A: not above -4.2.
